Test [1] addresses T1, HD21 (huntingtin exon 1 protein with 21 polyQ repeats after cleavage of the GST tag; aggregation reaction) (human), P42858.
T1 chain: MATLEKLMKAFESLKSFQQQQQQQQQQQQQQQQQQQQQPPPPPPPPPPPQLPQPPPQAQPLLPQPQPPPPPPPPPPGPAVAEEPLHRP
Kind of test: ELISA. The conditions noted are these: chains VH:VL; remark: other sources report otherwise.

Test [2] has as its target all four species (aggregated HD49, aggregated HD21, soluble GST-HD49 and GST-HD21). In words: direct ELISA, antigen coated at 5 ug/ml. (ELISA stands for enzyme-linked immunosorbent assay.)

B1: NI-302.8M1 (protein)
chain 1: EVQLVQSGAEVKKPGASVKVSCKASGYTFTIYYMHWVRQAPGQGLEWMGGISPSGAHTMYAQNFQGRVTVTRDTSTSTVYMELSSLRSEDTAVYYCARGSTVTNYRPFDYWGQGTLVTVSS
chain 2: DIQMTQSPSSLSASVGDRVTITCRASQDISNYLAWYQQKPGKVPKLLIFAASTLQSGVPSRFGGSGSGTDFTLTISSLQPEDVATYYCQNYNSGPPPFGPGTKVDIK
For orientation: EC50 means the concentration giving half of the maximal effect. In test [1], B1 displayed an EC50 of 0.002 nM.

B2: NI-302.15F9 (antibody, human IgG1, V domains shown)
VH: EVQLVESGGGLVTPGGSLRLSCEASGFLFKNSSMNWVRQTPGKGLEWVSSIDTSATNYKYYADSVKGRFTISRDDATNSLYLQMNSLRADDTATYYCARGYYTPRDFDYWGQGTLVTVSS
VL: DVVMTQSPQTLSVSLGQAASISCRSSQSLLYRDNNTYLNWFHQRPGQSPRRLIYRASDRDSGVPDRFSGGGSGTDFTLKISGVEAEDVGTYYCMQGTHWPRTFGQGTKVEIK
Molecule B2 gave an EC50 in test [2] of 5 to 35 nM.

B3: NI-302.4A6 (protein)
chain 1: EVQLVESGGGLVQPGGSLRLSCAASGFTFSAYAMSWVRQAPGKGLEWVSTISGSGGSTYYADSVKGRFSISRDNSKNTLYLQMNSLRAEDTAVYFCAKVTTELYGANSYYYYMDVWGKGTTVTVSS
chain 2: EIVLTQSPGTLSLSPGERATLSCRASQSVVSRYLAWYQQKPGQAPRLLIYGASSRATGIPDRFSGSGSGTDFTLTISRLEPEDFAMYYCQLYGNSQTFGQGTKVEIK
In test [1], B3 returned a concentration for a half-maximal effect (EC50) of 3 nM.

B4: NI-302.12H2 (protein)
chain 1: EVQLVQSGGGLVQPGGSLRLSCEASGFTFSNYAMGWVRQAPGKGLEWVSVISGTGGSTYYADSVKGRFTISRDNSMNTLYLQMNSPRADDTAVYYCAKDLRKISGPLYYYGMDVWGQGTTVTVSS
chain 2: EIVLTQSPGTLSLSPGERATLSCRASQSVSSGYLAWYQQKPGQAPRLLIYGASTRATGIPDRFSGSGSGTDFTLTISRLEPEDFAVYYCQHYGASSYTFGQGTKLEIK
Regarding B4, in test [1], the EC50 turned out to be 0.05 nM.

The values are drawn from US20170166631A1.
